T1: Human CD3eg linker (human)
T1 construct: single-chain construct; also called recombinant human CD3
T1 chain: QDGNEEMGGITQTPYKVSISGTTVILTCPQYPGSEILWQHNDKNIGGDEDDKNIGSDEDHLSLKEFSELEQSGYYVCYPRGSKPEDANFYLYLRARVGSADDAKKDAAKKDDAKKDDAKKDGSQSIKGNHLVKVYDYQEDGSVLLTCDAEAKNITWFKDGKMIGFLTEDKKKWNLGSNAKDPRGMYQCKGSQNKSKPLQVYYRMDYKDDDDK

B1: dBBDu183H S62R/dBBDu072L (antibody, name in Kabat numbering, V domains shown)
VH: QVQLVESGGGLVQPGRSLRLSCAASGFTFSNAWMHWVRQAPGKGLEWVAQIKDKGNAYAAYYAPRVKGRFTISRDDSKNSIYLQMNSLKTEDTAVYYCHYVHYASASTVLPAFGVDAWGQGTTVTVSS
VL: DIVMTQSPLSLPVTPGEPASISCQASQELVHMNRNTYLHWYQQKPGQAPRLLIYKVSNRFPGVPDRFSGSGSGTDFTLKISRVEAEDVGVYYCAQGTSVPFTFGQGTKLEIK
B2: dBBDu183H S99F/dBBDu072L (antibody, name in Kabat numbering, V domains shown)
VH: B1 VH with R65S, S105F
VL: B1 VL
B3: dBBDu183H S62Y/dBBDu072L (antibody, name in Kabat numbering, V domains shown)
VH: B1 VH with R65Y
VL: B1 VL
B4: dBBDu183H T100bE/dBBDu072L (antibody, name in Kabat numbering, V domains shown)
VH: B1 VH with R65S, T108E
VL: B1 VL
B5: dBBDu183H S100aH/dBBDu072L (antibody, name in Kabat numbering, V domains shown)
VH: B1 VH with R65S, S107H
VL: B1 VL
B6: dBBDu183H T100bD/dBBDu072L (antibody, name in Kabat numbering, V domains shown)
VH: B1 VH with R65S, T108D
VL: B1 VL
B7: dBBDu183H S62T/dBBDu072L (antibody, name in Kabat numbering, V domains shown)
VH: B1 VH with R65T
VL: B1 VL
B8: dBBDu183H T100bF/dBBDu072L (antibody, name in Kabat numbering, V domains shown)
VH: B1 VH with R65S, T108F
VL: B1 VL
B9: dBBDu183H S99Y/dBBDu072L (antibody, name in Kabat numbering, V domains shown)
VH: B1 VH with R65S, S105Y
VL: B1 VL
B10: dBBDu183H S100aN/dBBDu072L (antibody, name in Kabat numbering, V domains shown)
VH: B1 VH with R65S, S107N
VL: B1 VL
B11: dBBDu183H S99Q/dBBDu072L (antibody, name in Kabat numbering, V domains shown)
VH: B1 VH with R65S, S105Q
VL: B1 VL
B12: dBBDu183H S99V/dBBDu072L (antibody, name in Kabat numbering, V domains shown)
VH: B1 VH with R65S, S105V
VL: B1 VL
B13: dBBDu183H S62W/dBBDu072L (antibody, name in Kabat numbering, V domains shown)
VH: B1 VH with R65W
VL: B1 VL
B14: dBBDu183H S99N/dBBDu072L (antibody, name in Kabat numbering, V domains shown)
VH: B1 VH with R65S, S105N
VL: B1 VL
B15: dBBDu183H S100aE/dBBDu072L (antibody, name in Kabat numbering, V domains shown)
VH: B1 VH with R65S, S107E
VL: B1 VL
B16: dBBDu183H S99T/dBBDu072L (antibody, name in Kabat numbering, V domains shown)
VH: B1 VH with R65S, S105T
VL: B1 VL
B17: dBBDu183H S100aF/dBBDu072L (antibody, name in Kabat numbering, V domains shown)
VH: B1 VH with R65S, S107F
VL: B1 VL
B18: dBBDu183H S100aD/dBBDu072L (antibody, name in Kabat numbering, V domains shown)
VH: B1 VH with R65S, S107D
VL: B1 VL
B19: dBBDu183H T100bS/dBBDu072L (antibody, name in Kabat numbering, V domains shown)
VH: B1 VH with R65S, T108S
VL: B1 VL
B20: dBBDu183H S99R/dBBDu072L (antibody, name in Kabat numbering, V domains shown)
VH: B1 VH with R65S, S105R
VL: B1 VL
B21: dBBDu183H S99E/dBBDu072L (antibody, name in Kabat numbering, V domains shown)
VH: B1 VH with R65S, S105E
VL: B1 VL
B22: dBBDu183H S100aT/dBBDu072L (antibody, name in Kabat numbering, V domains shown)
VH: B1 VH with R65S, S107T
VL: B1 VL
B23: dBBDu183H T100bQ/dBBDu072L (antibody, name in Kabat numbering, V domains shown)
VH: B1 VH with R65S, T108Q
VL: B1 VL
B24: dBBDu183H S99W/dBBDu072L (antibody, name in Kabat numbering, V domains shown)
VH: B1 VH with R65S, S105W
VL: B1 VL
B25: dBBDu183H S100aV/dBBDu072L (antibody, name in Kabat numbering, V domains shown)
VH: B1 VH with R65S, S107V
VL: B1 VL
B26: dBBDu183H T100bV/dBBDu072L (antibody, name in Kabat numbering, V domains shown)
VH: B1 VH with R65S, T108V
VL: B1 VL
B27: dBBDu183H T100bR/dBBDu072L (antibody, name in Kabat numbering, V domains shown)
VH: B1 VH with R65S, T108R
VL: B1 VL
B28: dBBDu183H T100bH/dBBDu072L (antibody, name in Kabat numbering, V domains shown)
VH: B1 VH with R65S, T108H
VL: B1 VL
B29: dBBDu183H S100aK/dBBDu072L (antibody, name in Kabat numbering, V domains shown)
VH: B1 VH with R65S, S107K
VL: B1 VL
B30: dBBDu183H S99G/dBBDu072L (antibody, name in Kabat numbering, V domains shown)
VH: B1 VH with R65S, S105G
VL: B1 VL
B31: dBBDu183H S99K/dBBDu072L (antibody, name in Kabat numbering, V domains shown)
VH: B1 VH with R65S, S105K
VL: B1 VL
B32: dBBDu183H S100aG/dBBDu072L (antibody, name in Kabat numbering, V domains shown)
VH: B1 VH with R65S, S107G
VL: B1 VL
B33: dBBDu183H T100bK/dBBDu072L (antibody, name in Kabat numbering, V domains shown)
VH: B1 VH with R65S, T108K
VL: B1 VL
B34: dBBDu183H T100bN/dBBDu072L (antibody, name in Kabat numbering, V domains shown)
VH: B1 VH with R65S, T108N
VL: B1 VL
B35: dBBDu183H S99H/dBBDu072L (antibody, name in Kabat numbering, V domains shown)
VH: B1 VH with R65S, S105H
VL: B1 VL
B36: dBBDu183H T100bG/dBBDu072L (antibody, name in Kabat numbering, V domains shown)
VH: B1 VH with R65S, T108G
VL: B1 VL
B37: dBBDu183H S100aR/dBBDu072L (antibody, name in Kabat numbering, V domains shown)
VH: B1 VH with R65S, S107R
VL: B1 VL
B38: dBBDu183H S62V/dBBDu072L (antibody, name in Kabat numbering, V domains shown)
VH: B1 VH with R65V
VL: B1 VL
B39: dBBDu183H S100aQ/dBBDu072L (antibody, name in Kabat numbering, V domains shown)
VH: B1 VH with R65S, S107Q
VL: B1 VL
B40: dBBDu183H S100aW/dBBDu072L (antibody, name in Kabat numbering, V domains shown)
VH: B1 VH with R65S, S107W
VL: B1 VL
B41: dBBDu183H S99D/dBBDu072L (antibody, name in Kabat numbering, V domains shown)
VH: B1 VH with R65S, S105D
VL: B1 VL
B42: dBBDu183H S100aY/dBBDu072L (antibody, name in Kabat numbering, V domains shown)
VH: B1 VH with R65S, S107Y
VL: B1 VL

Changes are numbered by the printed parent chain. Names may count otherwise.

The assay addresses T1, Human CD3eg linker. Put plainly: SPR, vs unmutated H183/L072. Background: SPR reads the build-up and loss of mass on a sensor chip optically.
Regarding B1, the “fold change of affinity” value is 1.5 fold.
Regarding B2, the “fold change of affinity” value turned out to be 1 fold.
In the case of B3, the “fold change of affinity” value came out at 1.5 fold.
On to B4, for which the “fold change of affinity” value came to 0.6 fold.
As to B5, the “fold change of affinity” value stood at 1.1 fold.
As for B6, the “fold change of affinity” value is 0.6 fold.
The figure for B7 is 1.3 fold; for B8 it is 1.2 fold; for B9 it is 0.8 fold.
Regarding B10, the “fold change of affinity” value was 0.8 fold.
Take B11: the “fold change of affinity” value was found to be 1 fold.
As to B12, the “fold change of affinity” value came to 0.8 fold.
On to B13, for which the “fold change of affinity” value came to 2 fold.
In the case of B14, the “fold change of affinity” value was 0.6 fold.
B15: the “fold change of affinity” value was 0.6 fold.
To B16 belongs 0.9 fold; to B17, 1.6 fold; to B18, 0.6 fold.
B19: the “fold change of affinity” value amounted to 1.5 fold.
Consider B20, for which the “fold change of affinity” value amounted to 2 fold.
Consider B21, for which the “fold change of affinity” value came out at 0.3 fold.
With B22, the “fold change of affinity” value worked out at 0.9 fold.
On to B23, for which the “fold change of affinity” value worked out at 1.1 fold.
The figure for B24 is 0.9 fold; for B25 it is 1 fold.
The figure for B26 is 1.2 fold; for B27 it is 1.8 fold.
For the molecule B28, the “fold change of affinity” value is 1.2 fold.
As for B29, the “fold change of affinity” value stood at 0.9 fold.
The figure for B30 is 1 fold.
For the molecule B31, the “fold change of affinity” value was found to be 1.8 fold.
Regarding B32, the “fold change of affinity” value stood at 1.2 fold.
Turning to B33, the “fold change of affinity” value was found to be 1.3 fold.
For the molecule B34, the “fold change of affinity” value was determined as 1 fold.
In the case of B35, the “fold change of affinity” value is 0.7 fold.
Consider B36, for which the “fold change of affinity” value turned out to be 1.1 fold.
The figure for B37 is 0.6 fold; for B38 it is 1.4 fold.
On to B39, for which the “fold change of affinity” value worked out at 0.5 fold.
For B40, the “fold change of affinity” value turned out to be 1.6 fold.
For B41, the “fold change of affinity” value came out at 0.3 fold.
Consider B42, for which the “fold change of affinity” value was determined as 1.2 fold.

(Values after US20210388087A1 (Chugai, published 2021).)
